According to patent US20260250398A1 (ANTLERA THERAPEUTICS, published 2026):

B1: CT0003 (Table 5: FZD Diabody-Fc-LRP scFv; paratopes 5016; 2539, 2542) (bispecific antibody)
chain 1: MNLLLILTFVAAAVAEFEVQLVESGGGLVQPGGSLRLSCAASGFNISSYYIHWVRQAPGKGLEWVASIYSSYGYTSYADSVKGRFTISADTSKNTAYLQMNSLRAEDTAVYYCARTVRGSKKPYFSGWAMDYWGQGTLVTVSSGGGGSDIQMTQSPSSLSASVGDRVTITCRASQSVSSAVAWYQQKPGKAPKLLIYSASSLYSGVPSRFSGSRSGTDFTLTISSLQPEDFATYYCQQYSWGPFTFGQGTKVEIKLEDKTHTKVEPKSSDKTHNCPPCPAPELLGGPSVFLFPPKPKDTLMISRTPEVTCVVVDVSHEDPEVKFNWYVDGVEVHNAKTKPREEQYNSTYRVVSVLTVLHQDWLNGKEYKCKVSNKALPAPIEKTISKAKGQPREPQVYTLPPIRELMTSNQVSLSCAVKGFYPSDIAVEWESNGQPENNYKTTPPVLDSDGSFFLVSKLTVDKSRWQQGNVFSCSVMHEALHNHYTQKSLSLSPGKSGSETPGTSESATPESGGGEVQLVESGGGLVQPGGSLRLSCAASGFNIHSSSIHWVRQAPGKGLEWVAATYSSFGSITYADSVKGRFTISADTSKNTAYLQMNSLRAEDTAVYYCARYHHPFGYALDYWGQGTLVTVSSGTTAASGSSGGSSSGADIQMTQSPSSLSASVGDRVTITCRASQSVSSAVAWYQQKPGKAPKLLIYSASSLYSGVPSRFSGSRSGTDFTLTISSLQPEDFATYYCQQGVYLFTFGQGTKVEIK
chain 2: MNLLLILTFVAAAVAEFEVQLVESGGGLVQPGGSLRLSCAASGFNISYSSIHWVRQAPGKGLEWVAYISSYYGYTYYADSVKGRFTISADTSKNTAYLQMNSLRAEDTAVYYCARAHYFPWAGAMDYWGQGTLVTVSSGGGGDIQMTQSPSSLSASVGDRVTITCRASQSVSSAVAWYQQKPGKAPKLLIYSASSLYSGVPSRFSGSRSGTDFTLTISSLQPEDFATYYCQQYYWPITFGQGTKVEIKLEDKTHTKVEPKTSDKTHTCPPCPAPELLGGPSVFLFPPKPKDTLMISRTPEVTCVVVDVSHEDPEVKFNWYVDGVEVHNAKTKPREEQYNSTYRVVSVLTVLHQDWLNGKEYKCKVSNKALPAPIEKTISKAKGQPREPMVFDLPPSREEMTKNQVSLWCMVKGFYPSDIAVEWESNGQPENNYKTTPPVLDSDGSFFLYSKLTVDKSRWQQGNVFSCSVMHEALHNHYTQKSLSLSPGKSGSETPGTSESATPESGGGEVQLVESGGGLVQPGGSLRLSCAASGFNIHSSSIHWVRQAPGKGLEWVAATYSSFGSITYADSVKGRFTISADTSKNTAYLQMNSLRAEDTAVYYCARYHHPFGYALDYWGQGTLVTVSSGTTAASGSSGGSSSGADIQMTQSPSSLSASVGDRVTITCRASQSVSSAVAWYQQKPGKAPKLLIYSASSLYSGVPSRFSGSRSGTDFTLTISSLQPEDFATYYCQQGVYLFTFGQGTKVEIK
B2: Fab-Dia (paratopes 5016; 2540/2542) (bispecific antibody)
heavy: EVQLVESGGGLVQPGGSLRLSCAASGFNIHSSSIHWVRQAPGKGLEWVAATYSSFGSITYADSVKGRFTISADTSKNTAYLQMNSLRAEDTAVYYCARYHHPFGYALDYWGQGTLVTVSSASTKGPSVFPLAPSSKSTSGGTAALGCLVKDYFPEPVTVSWNSGALTSGVHTFPAVLQSSGLYSLSSVVTVPSSSLGTQTYICNVNHKPSNTKVDKKVEPKSCDKTHTGGSGGEVQLVESGGGLVQPGGSLRLSCAASGFTISYSSIHWVRQAPGKGLEWVASISPYYGYTYYADSVKGRFTISADTSKNTAYLQMNSLRAEDTAVYYCARSSYFPWFSAMDYWGQGTLVTVSSGGGGSDIQMTQSPSSLSASVGDRVTITCRASQSVSSAVAWYQQKPGKAPKLLIYSASSLYSGVPSRFSGSRSGTDFTLTISSLQPEDFATYYCQQYYWPITFGQGTKVEIK
light: DIQMTQSPSSLSASVGDRVTITCRASQSVSSAVAWYQQKPGKAPKLLIYSASSLYSGVPSRFSGSRSGTDFTLTISSLQPEDFATYYCQQGVYLFTFGQGTKVEIKRTVAAPSVFIFPPSDEQLKSGTASVVCLLNNFYPREAKVQWKVDNALQSGNSQESVTEQDSKDSTYSLSSTLTLSKADYEKHKVYACEVTHQGLSSPVTKSFNRGECGGGGSEVQLVESGGGLVQPGGSLRLSCAASGFTISSYYIHWVRQAPGKGLEWVASIYSSYGYTSYADSVKGRFTISADTSKNTAYLQMNSLRAEDTAVYYCARTVRGSKKPYFSGWAMDYWGQGTLVTVSSGGGGSDIQMTQSPSSLSASVGDRVTITCRASQSVSSAVAWYQQKPGKAPKLLIYSASSLYSGVPSRFSGSRSGTDFTLTISSLQPEDFATYYCQQYYFLITFGQGTKVEIK
B3: CM0299 (FZD IgG-LRP Diabody; paratopes 5016; 2539) (bispecific antibody)
heavy: not shown
light: DIQMTQSPSSLSASVGDRVTITCRASQSVSSAVAWYQQKPGKAPKLLIYSASSLYSGVPSRFSGSRSGTDFTLTISSLQPEDFATYYCQQGVYLFTFGQGTKVEIKRTVAAPSVFIFPPSDEQLKSGTASVVCLLNNFYPREAKVQWKVDNALQSGNSQESVTEQDSKDSTYSLSSTLTLSKADYEKHKVYACEVTHQGLSSPVTKSFNRGEC
B4: CM0301 (FZD IgG-LRP scFv; paratopes 5016; 2542) (bispecific antibody)
heavy: not shown
light: B3 light
B5: CM0300 (FZD IgG-LRP scFv; paratopes 5016; 2539) (bispecific antibody)
heavy: not shown
light: B3 light
B6: CM0126 (FZD Diabody-Fc-LRP Diabody; paratopes 5016; 2539, 2542) (bispecific antibody)
chain 1: MNLLLILTFVAAAVAEFEVQLVESGGGLVQPGGSLRLSCAASGFNIHSSSIHWVRQAPGKGLEWVAATYSSFGSITYADSVKGRFTISADTSKNTAYLQMNSLRAEDTAVYYCARYHHPFGYALDYWGQGTLVTVSSGGGGSDIQMTQSPSSLSASVGDRVTITCRASQSVSSAVAWYQQKPGKAPKLLIYSASSLYSGVPSRFSGSRSGTDFTLTISSLQPEDFATYYCQQGVYLFTFGQGTKVEIKLEDKTHTKVEPKSSDKTHNCPPCPAPELLGGPSVFLFPPKPKDTLMISRTPEVTCVVVDVSHEDPEVKFNWYVDGVEVHNAKTKPREEQYNSTYRVVSVLTVLHQDWLNGKEYKCKVSNKALPAPIEKTISKAKGQPREPQVYTLPPIRELMTSNQVSLSCAVKGFYPSDIAVEWESNGQPENNYKTTPPVLDSDGSFFLVSKLTVDKSRWQQGNVFSCSVMHEALHNHYTQKSLSLSPGKSGSETPGTSESATPESGGGEVQLVESGGGLVQPGGSLRLSCAASGFNISSYYIHWVRQAPGKGLEWVASIYSSYGYTSYADSVKGRFTISADTSKNTAYLQMNSLRAEDTAVYYCARTVRGSKKPYFSGWAMDYWGQGTLVTVSSGGGGSDIQMTQSPSSLSASVGDRVTITCRASQSVSSAVAWYQQKPGKAPKLLIYSASSLYSGVPSRFSGSRSGTDFTLTISSLQPEDFATYYCQQYSWGPFTFGQGTKVEIK
chain 2: MNLLLILTFVAAAVAEFEVQLVESGGGLVQPGGSLRLSCAASGFNIHSSSIHWVRQAPGKGLEWVAATYSSFGSITYADSVKGRFTISADTSKNTAYLQMNSLRAEDTAVYYCARYHHPFGYALDYWGQGTLVTVSSGGGGSDIQMTQSPSSLSASVGDRVTITCRASQSVSSAVAWYQQKPGKAPKLLIYSASSLYSGVPSRFSGSRSGTDFTLTISSLQPEDFATYYCQQGVYLFTFGQGTKVEIKLEDKTHTKVEPKTSDKTHTCPPCPAPELLGGPSVFLFPPKPKDTLMISRTPEVTCVVVDVSHEDPEVKFNWYVDGVEVHNAKTKPREEQYNSTYRVVSVLTVLHQDWLNGKEYKCKVSNKALPAPIEKTISKAKGQPREPMVFDLPPSREEMTKNQVSLWCMVKGFYPSDIAVEWESNGQPENNYKTTPPVLDSDGSFFLYSKLTVDKSRWQQGNVFSCSVMHEALHNHYTQKSLSLSPGKSGSETPGTSESATPESGGGEVQLVESGGGLVQPGGSLRLSCAASGFNISYSSIHWVRQAPGKGLEWVAYISSYYGYTYYADSVKGRFTISADTSKNTAYLQMNSLRAEDTAVYYCARAHYFPWAGAMDYWGQGTLVTVSSGGGGSDIQMTQSPSSLSASVGDRVTITCRASQSVSSAVAWYQQKPGKAPKLLIYSASSLYSGVPSRFSGSRSGTDFTLTISSLQPEDFATYYCQQYYWPITFGQGTKVEIK
B7: CH3 (Dia-CH3-Dia; paratopes 5019; 2539) (bispecific antibody)
chain: MNLLLILTFVAAAVAEFEVQLVESGGGLVQPGGSLRLSCAASGFNIGSSSIHWVRQAPGKGLEWVASIYSAFASTSYADSVKGRFTISADTSKNTAYLQMNSLRAEDTAVYYCARYHFPFGFALDYWGQGTLVTVSSGGGGSDIQMTQSPSSLSASVGDRVTITCRASQSVSSAVAWYQQKPGKAPKLLIYSASSLYSGVPSRFSGSRSGTDFTLTISSLQPEDFATYYCQQGVYLFTFGQGTKVEIKDKTHTKVEPKTSDKTHTCPPCPGQPREPQVYTLPPSREEMTKNQVSLTCLVKGFYPSDIAVEWESNGQPENNYKTTPPVLDSDGSFFLYSKLTVDKSRWQQGNVFSCSVMHEALHNHYTQKSLSLSPGKGTTAASGSSGGSSSGAGRTEVQLVESGGGLVQPGGSLRLSCAASGFNISYSSIHWVRQAPGKGLEWVAYISSYYGYTYYADSVKGRFTISADTSKNTAYLQMNSLRAEDTAVYYCARAHYFPWAGAMDYWGQGTLVTVSSGGGGSDIQMTQSPSSLSASVGDRVTITCRASQSVSSAVAWYQQKPGKAPKLLIYSASSLYSGVPSRFSGSRSGTDFTLTISSLQPEDFATYYCQQYSWGPFTFGQGTKVEIK

Key:
[1] = target: T1, LRP6 (low-density lipoprotein receptor-related protein 6) (UniProt O75581 20-1370, limits assumed); test: cell-based or functional assay
T1 sequence (looked up): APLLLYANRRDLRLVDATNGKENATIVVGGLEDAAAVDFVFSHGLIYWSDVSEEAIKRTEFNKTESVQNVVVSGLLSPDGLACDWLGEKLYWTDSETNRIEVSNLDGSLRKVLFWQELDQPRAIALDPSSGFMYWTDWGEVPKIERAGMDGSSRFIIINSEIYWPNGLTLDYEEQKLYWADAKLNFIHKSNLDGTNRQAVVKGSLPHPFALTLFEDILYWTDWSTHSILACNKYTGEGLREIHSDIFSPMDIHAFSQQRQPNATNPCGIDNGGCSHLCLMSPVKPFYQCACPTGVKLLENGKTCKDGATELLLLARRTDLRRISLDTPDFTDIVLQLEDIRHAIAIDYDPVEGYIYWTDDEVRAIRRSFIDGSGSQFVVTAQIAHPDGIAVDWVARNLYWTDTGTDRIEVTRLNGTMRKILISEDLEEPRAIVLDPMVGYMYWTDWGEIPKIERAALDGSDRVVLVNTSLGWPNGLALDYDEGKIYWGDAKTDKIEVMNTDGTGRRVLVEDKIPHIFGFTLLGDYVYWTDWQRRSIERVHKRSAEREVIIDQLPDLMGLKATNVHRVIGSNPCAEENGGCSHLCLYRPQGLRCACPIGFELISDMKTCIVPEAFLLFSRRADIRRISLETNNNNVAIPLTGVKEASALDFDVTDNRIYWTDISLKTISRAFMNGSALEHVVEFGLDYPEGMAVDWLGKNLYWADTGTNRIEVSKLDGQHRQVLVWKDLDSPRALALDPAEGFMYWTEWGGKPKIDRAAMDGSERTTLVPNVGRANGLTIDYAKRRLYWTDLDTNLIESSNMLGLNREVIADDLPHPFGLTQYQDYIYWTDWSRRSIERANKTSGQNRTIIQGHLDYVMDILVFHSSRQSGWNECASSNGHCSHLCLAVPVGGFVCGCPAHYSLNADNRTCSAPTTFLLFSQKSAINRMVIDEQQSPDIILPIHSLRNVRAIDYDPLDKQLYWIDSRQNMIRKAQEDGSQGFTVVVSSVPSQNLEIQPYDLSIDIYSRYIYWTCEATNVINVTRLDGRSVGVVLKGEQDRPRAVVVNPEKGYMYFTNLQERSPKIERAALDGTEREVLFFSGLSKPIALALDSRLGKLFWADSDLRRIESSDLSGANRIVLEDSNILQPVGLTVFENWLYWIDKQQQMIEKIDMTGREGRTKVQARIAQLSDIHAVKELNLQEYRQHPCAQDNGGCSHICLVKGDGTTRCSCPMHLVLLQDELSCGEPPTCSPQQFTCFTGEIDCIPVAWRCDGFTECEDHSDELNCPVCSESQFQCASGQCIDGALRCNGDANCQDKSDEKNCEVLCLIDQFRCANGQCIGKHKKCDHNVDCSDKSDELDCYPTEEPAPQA

[2] = target: T1, LRP6 (low-density lipoprotein …); test: cell-based or functional assay; remark: listed apart in the source

Binder	TOPFLASH % Wnt Maxima [1]	TOPFLASH Maximal Signal (% Wnt3a maxima) [2]
B1	42 % Wnt Maxima	–
B2	–	42 % Wnt3a maxima
B3	14 % Wnt Maxima	–
B4	1 % Wnt Maxima	–
B5	5 % Wnt Maxima	–
B6	52 % Wnt Maxima	–
B7	–	22 % Wnt3a maxima
